Data published in patent US20200048612.

B1: HA-tagged full-length JMJD3 (protein)
chain: MHRAVDPPGARAAREAFALGGLSCAGAWSSCPPHPPPRSAWLPGGRCSASIGQPPLPAPLPPSHGSSSGHPSKPYYAPGAPTPRPLHGKLESLHGCVQALLREPAQPGLWEQLGQLYESEHDSEEATRCYHSALRYGGSFAELGPRIGRLQQAQLWNFHTGSCQHRAKVLPPLEQVWNLLHLEHKRNYGAKRGGPPVKRAAEPPVVQPVPPAALSGPSGEEGLSPGGKRRRGCNSEQTGLPPGLPLPPPPLPPPPPPPPPPPPPLPGLATSPPFQLTKPGLWSTLHGDAWGPERKGSAPPERQEQRHSLPHPYPYPAPAYTAHPPGHRLVPAAPPGPGPRPPGAESHGCLPATRPPGSDLRESRVQRSRMDSSVSPAATTACVPYAPSRPPGLPGTTTSSSSSSSSNTGLRGVEPNPGIPGADHYQTPALEVSHHGRLGPSAHSSRKPFLGAPAATPHLSLPPGPSSPPPPPCPRLLRPPPPPAWLKGPACRAAREDGEILEELFFGTEGPPRPAPPPLPHREGFLGPPASRFSVGTQDSHTPPTPPTPTTSSSNSNSGSHSSSPAGPVSFPPPPYLARSIDPLPRPPSPAQNPQDPPLVPLTLALPPAPPSSCHQNTSGSFRRPESPRPRVSFPKTPEVGPGPPPGPLSKAPQPVPPGVGELPARGPRLFDFPPTPLEDQFEEPAEFKILPDGLANIMKMLDESIRKEEEQQQHEAGVAPQPPLKEPFASLQSPFPTDTAPTTTAPAVAVTTTTTTTTTTTATQEEEKKPPPALPPPPPLAKFPPPSQPQPPPPPPPSPASLLKSLASVLEGQKYCYRGTGAAVSTRPGPLPTTQYSPGPPSGATALPPTSAAPSAQGSPQPSASSSSQFSTSGGPWARERRAGEEPVPGPMTPTQPPPPLSLPPARSESEVLEEISRACETLVERVGRSATDPADPVDTAEPADSGTERLLPPAQAKEEAGGVAAVSGSCKRRQKEHQKEHRRHRRACKDSVGRRPREGRAKAKAKVPKEKSRRVLGNLDLQSEEIQGREKSRPDLGGASKAKPPTAPAPPSAPAPSAQPTPPSASVPGKKAREEAPGPPGVSRADMLKLRSLSEGPPKELKIRLIKVESGDKETFIASEVEERRLRMADLTISHCAADVVRASRNAKVKGKFRESYLSPAQSVKPKINTEEKLPREKLNPPTPSIYLESKRDAFSPVLLQFCTDPRNPITVIRGLAGSLRLNLGLFSTKTLVEASGEHTVEVRTQVQQPSDENWDLTGTRQIWPCESSRSHTTIAKYAQYQASSFQESLQEEKESEDEESEEPDSTTGTPPSSAPDPKNHHIIKFGTNIDLSDAKRWKPQLQELLKLPAFMRVTSTGNMLSHVGHTILGMNTVQLYMKVPGSRTPGHQENNNFCSVNINIGPGDCEWFAVHEHYWETISAFCDRHGVDYLTGSWWPILDDLYASNIPVYRFVQRPGDLVWINAGTVHWVQATGWCNNIAWNVGPLTAYQYQLALERYEWNEVKNVKSIVPMIHVSWNVARTVKISDPDLFKMIKFCLLQSMKHCQVQRESLVRAGKKIAYQGRVKDEPAYYCNECDVEVFNILFVTSENGSRNTYLVHCEGCARRRSAGLQGVVVLEQYRTEELAQAYDAFTLVRARRARGQRRRALGQAAGTGFGSPAAPFPEPPPAFSPQAPASTSR
B2: HA-tagged JMJD3c (catalytic domain-containing C-terminus of JMJD3) (protein)
chain: QSEEIQGREKSRPDLGGASKAKPPTAPAPPSAPAPSAQPTPPSASVPGKKAREEAPGPPGVSRADMLKLRSLSEGPPKELKIRLIKVESGDKETFIASEVEERRLRMADLTISHCAADVVRASRNAKVKGKFRESYLSPAQSVKPKINTEEKLPREKLNPPTPSIYLESKRDAFSPVLLQFCTDPRNPITVIRGLAGSLRLNLGLFSTKTLVEASGEHTVEVRTQVQQPSDENWDLTGTRQIWPCESSRSHTTIAKYAQYQASSFQESLQEEKESEDEESEEPDSTTGTPPSSAPDPKNHHIIKFGTNIDLSDAKRWKPQLQELLKLPAFMRVTSTGNMLSHVGHTILGMNTVQLYMKVPGSRTPGHQENNNFCSVNINIGPGDCEWFAVHEHYWETISAFCDRHGVDYLTGSWWPILDDLYASNIPVYRFVQRPGDLVWINAGTVHWVQATGWCNNIAWNVGPLTAYQYQLALERYEWNEVKNVKSIVPMIHVSWNVARTVKISDPDLFKMIKFCLLQSMKHCQVQRESLVRAGKKIAYQGRVKDEPAYYCNECDVEVFNILFVTSENGSRNTYLVHCEGCARRRSAGLQGVVVLEQYRTEELAQAYDAFTLVRARRARGQRRRALGQAAGTGFGSPAAPFPEPPPAFSPQAPASTSR

Molecular target: Histone H3 trimethylated at lysine 27 (H3K27me3), nucleosomal, in human ES cells

Protein | H3K27me3 level by immunostaining and immunoblotting, 8 hours after introduction of synthetic mRNA into hESCs | H3K27me3 level after doxycycline-induced expression in JMJD3c-hESCs
B1 | the introduction of the JMJD3c mRNA induced a more significant decrease in H3K27me3 as compared to the JMJD3f mRNA | 
B2 | the introduction of the JMJD3c mRNA induced a more significant decrease in H3K27me3 as compared to the JMJD3f mRNA | Dox treatment (1 µg/ml) induced HA-JMJD3c expression and a significant decrease in H3K27me3 in all hESCs
